T1: EsCas13d, nuclease-dead (Eubacterium siraeum, UniProt B0MS50, R295A;H300A;R849A;H854A)
T1 sequence: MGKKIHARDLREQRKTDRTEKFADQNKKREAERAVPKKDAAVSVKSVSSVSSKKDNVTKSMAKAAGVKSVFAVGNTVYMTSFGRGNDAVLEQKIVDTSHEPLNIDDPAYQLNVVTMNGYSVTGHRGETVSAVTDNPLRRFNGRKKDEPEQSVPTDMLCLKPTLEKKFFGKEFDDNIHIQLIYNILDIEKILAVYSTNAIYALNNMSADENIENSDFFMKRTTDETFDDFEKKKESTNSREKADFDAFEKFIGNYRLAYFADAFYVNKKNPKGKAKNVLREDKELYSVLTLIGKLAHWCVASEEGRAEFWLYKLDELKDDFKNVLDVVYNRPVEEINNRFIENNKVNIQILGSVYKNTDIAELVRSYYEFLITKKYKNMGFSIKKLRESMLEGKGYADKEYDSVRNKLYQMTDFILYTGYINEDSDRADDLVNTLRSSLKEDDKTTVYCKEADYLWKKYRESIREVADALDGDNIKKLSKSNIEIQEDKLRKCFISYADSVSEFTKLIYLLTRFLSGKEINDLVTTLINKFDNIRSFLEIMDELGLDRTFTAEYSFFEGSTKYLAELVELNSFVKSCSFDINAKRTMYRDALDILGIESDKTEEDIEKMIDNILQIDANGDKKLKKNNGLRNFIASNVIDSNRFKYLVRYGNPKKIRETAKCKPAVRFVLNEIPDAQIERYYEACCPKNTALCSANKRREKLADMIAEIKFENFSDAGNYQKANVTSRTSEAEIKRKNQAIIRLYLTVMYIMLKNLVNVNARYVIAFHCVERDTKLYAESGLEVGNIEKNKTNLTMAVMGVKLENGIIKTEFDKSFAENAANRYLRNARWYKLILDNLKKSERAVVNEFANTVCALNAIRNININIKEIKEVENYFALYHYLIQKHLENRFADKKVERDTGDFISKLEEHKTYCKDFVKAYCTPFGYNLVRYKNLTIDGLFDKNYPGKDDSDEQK

B1: target 3 del6 (mixed)
RNA 1: CACCCGUGCAAAAUUGCAGGGGUCUAAAACGACCUGAAUAUUUCAGAUCAAA
RNA 2: GGGAAUGGAUCCACAUCUACGAAUUCGUUUUUGAUCUGAAAUAUUAGGUCUGCAGAUCGGAAGAGCACACGU
B2: target 3 C1U,G3A (mixed)
RNA 1: CACCCGUGCAAAAUUGCAGGGGUCUAAAACGACCUGAAUAUUUCAGAUCAAA
RNA 2: GGGAAUGGAUCCACAUCUACGAAUUCGUUUUUGAUCUGAAAUAUUCAGAUUUGCAGAUCGGAAGAGCACACGU
B3: target 1 insG 3' of 10,insG 3' of 10 (mixed)
RNA 1: CACCCGUGCAAAAAUGCAGGGGUCUAAAACUGAGCGGAUAACCUCUCUAUGG
RNA 2: GGGAAUGGAUCCACAUCUACGAAUUCGUACCAUAGAGAGGUUGGAUCCGCUCACCGAGAUCGGAAGAGCACACGU
B4: target 3 U2G,U20C (mixed)
RNA 1: CACCCGUGCAAAAUUGCAGGGGUCUAAAACGACCUGAAUAUUUCAGAUCAAA
RNA 2: GGGAAUGGAUCCACAUCUACGAAUUCGUUUUCGAUCUGAAAUAUUCAGGGCUGCAGAUCGGAAGAGCACACGU
B5: target 3 U2G,U22C (mixed)
RNA 1: CACCCGUGCAAAAUUGCAGGGGUCUAAAACGACCUGAAUAUUUCAGAUCAAA
RNA 2: GGGAAUGGAUCCACAUCUACGAAUUCGUUCUUGAUCUGAAAUAUUCAGGGCUGCAGAUCGGAAGAGCACACGU
B6: target 3 insG 3' of 2,insG 3' of 2 (mixed)
RNA 1: CACCCGUGCAAAAUUGCAGGGGUCUAAAACGACCUGAAUAUUUCAGAUCAAA
RNA 2: GGGAAUGGAUCCACAUCUACGAAUUCGUUUUUGAUCUGAAAUAUUCAGGUGGCUGCAGAUCGGAAGAGCACACGU
B7: target 3 insG 3' of 6,insA 3' of 6 (mixed)
RNA 1: CACCCGUGCAAAAUUGCAGGGGUCUAAAACGACCUGAAUAUUUCAGAUCAAA
RNA 2: GGGAAUGGAUCCACAUCUACGAAUUCGUUUUUGAUCUGAAAUAUUCGAAGGUCUGCAGAUCGGAAGAGCACACGU
B8: target 3 U7A,A18G (mixed)
RNA 1: CACCCGUGCAAAAUUGCAGGGGUCUAAAACGACCUGAAUAUUUCAGAUCAAA
RNA 2: GGGAAUGGAUCCACAUCUACGAAUUCGUUUUUGGUCUGAAAUAUACAGGUCUGCAGAUCGGAAGAGCACACGU
B9: target 3 insU 3' of 9,insA 3' of 7 (mixed)
RNA 1: CACCCGUGCAAAAUUGCAGGGGUCUAAAACGACCUGAAUAUUUCAGAUCAAA
RNA 2: GGGAAUGGAUCCACAUCUACGAAUUCGUUUUUGAUCUGAAAUAUUUACAGGUCUGCAGAUCGGAAGAGCACACGU
B10: target 3 insA 3' of 2,insG 3' of 1 (mixed)
RNA 1: CACCCGUGCAAAAUUGCAGGGGUCUAAAACGACCUGAAUAUUUCAGAUCAAA
RNA 2: GGGAAUGGAUCCACAUCUACGAAUUCGUUUUUGAUCUGAAAUAUUCAGGUACGUGCAGAUCGGAAGAGCACACGU
B11: target 3 A9U (mixed)
RNA 1: CACCCGUGCAAAAUUGCAGGGGUCUAAAACGACCUGAAUAUUUCAGAUCAAA
RNA 2: GGGAAUGGAUCCACAUCUACGAAUUCGUUUUUGAUCUGAAAUUUUCAGGUCUGCAGAUCGGAAGAGCACACGU
B12: target 3 C1A,U2C (mixed)
RNA 1: CACCCGUGCAAAAUUGCAGGGGUCUAAAACGACCUGAAUAUUUCAGAUCAAA
RNA 2: GGGAAUGGAUCCACAUCUACGAAUUCGUUUUUGAUCUGAAAUAUUCAGGCAUGCAGAUCGGAAGAGCACACGU
B13: target 3 insC 3' of 7,insA 3' of 7 (mixed)
RNA 1: CACCCGUGCAAAAUUGCAGGGGUCUAAAACGACCUGAAUAUUUCAGAUCAAA
RNA 2: GGGAAUGGAUCCACAUCUACGAAUUCGUUUUUGAUCUGAAAUAUUCACAGGUCUGCAGAUCGGAAGAGCACACGU
B14: target 1 U8A,C22A (mixed)
RNA 1: CACCCGUGCAAAAAUGCAGGGGUCUAAAACUGAGCGGAUAACCUCUCUAUGG
RNA 2: GGGAAUGGAUCCACAUCUACGAAUUCGUAACAUAGAGAGGUUAACCGCUCACCGAGAUCGGAAGAGCACACGU
B15: target 3 C1G,A9U (mixed)
RNA 1: CACCCGUGCAAAAUUGCAGGGGUCUAAAACGACCUGAAUAUUUCAGAUCAAA
RNA 2: GGGAAUGGAUCCACAUCUACGAAUUCGUUUUUGAUCUGAAAUUUUCAGGUGUGCAGAUCGGAAGAGCACACGU
B16: target 3 A18U,U22A (mixed)
RNA 1: CACCCGUGCAAAAUUGCAGGGGUCUAAAACGACCUGAAUAUUUCAGAUCAAA
RNA 2: GGGAAUGGAUCCACAUCUACGAAUUCGUUAUUGUUCUGAAAUAUUCAGGUCUGCAGAUCGGAAGAGCACACGU
B17: target 3 del1,del15 (mixed)
RNA 1: CACCCGUGCAAAAUUGCAGGGGUCUAAAACGACCUGAAUAUUUCAGAUCAAA
RNA 2: GGGAAUGGAUCCACAUCUACGAAUUCGUUUUUGAUCGAAAUAUUCAGGUUGCAGAUCGGAAGAGCACACGU
B18: target 3 insC 3' of 11,insG 3' of 7 (mixed)
RNA 1: CACCCGUGCAAAAUUGCAGGGGUCUAAAACGACCUGAAUAUUUCAGAUCAAA
RNA 2: GGGAAUGGAUCCACAUCUACGAAUUCGUUUUUGAUCUGAAACUAUUGCAGGUCUGCAGAUCGGAAGAGCACACGU
B19: target 3 U20A,U21G (mixed)
RNA 1: CACCCGUGCAAAAUUGCAGGGGUCUAAAACGACCUGAAUAUUUCAGAUCAAA
RNA 2: GGGAAUGGAUCCACAUCUACGAAUUCGUUUGAGAUCUGAAAUAUUCAGGUCUGCAGAUCGGAAGAGCACACGU
B20: target 3 G3C,A9G (mixed)
RNA 1: CACCCGUGCAAAAUUGCAGGGGUCUAAAACGACCUGAAUAUUUCAGAUCAAA
RNA 2: GGGAAUGGAUCCACAUCUACGAAUUCGUUUUUGAUCUGAAAUGUUCAGCUCUGCAGAUCGGAAGAGCACACGU
B21: target 3 insA 3' of 2,insU 3' of 1 (mixed)
RNA 1: CACCCGUGCAAAAUUGCAGGGGUCUAAAACGACCUGAAUAUUUCAGAUCAAA
RNA 2: GGGAAUGGAUCCACAUCUACGAAUUCGUUUUUGAUCUGAAAUAUUCAGGUACUUGCAGAUCGGAAGAGCACACGU
B22: target 3 U2G,G4A (mixed)
RNA 1: CACCCGUGCAAAAUUGCAGGGGUCUAAAACGACCUGAAUAUUUCAGAUCAAA
RNA 2: GGGAAUGGAUCCACAUCUACGAAUUCGUUUUUGAUCUGAAAUAUUCAAGGCUGCAGAUCGGAAGAGCACACGU
B23: target 3 insU 3' of 22,insG 3' of 1 (mixed)
RNA 1: CACCCGUGCAAAAUUGCAGGGGUCUAAAACGACCUGAAUAUUUCAGAUCAAA
RNA 2: GGGAAUGGAUCCACAUCUACGAAUUCGUUUUUUGAUCUGAAAUAUUCAGGUCGUGCAGAUCGGAAGAGCACACGU
B24: target 3 G3C (mixed)
RNA 1: CACCCGUGCAAAAUUGCAGGGGUCUAAAACGACCUGAAUAUUUCAGAUCAAA
RNA 2: GGGAAUGGAUCCACAUCUACGAAUUCGUUUUUGAUCUGAAAUAUUCAGCUCUGCAGAUCGGAAGAGCACACGU

target: T1, EsCas13d, nuclease-dead; experiment: crRNA (strand 1, pre-loaded); Mg2+; 40 mM Tris-HCl pH 7.5, 150 mM NaCl, 6 mM MgCl2, 1 mM DTT, 0.1% Tween-20, 0.2 mg/ml BSA; 25 C; 10 min per concentration, then washed; details: tags: His6-TwinStrep-SUMO cleaved; N-terminal SNAP kept (SNAP-Surface 488); label: 3' end held by stalled T7 RNA polymerase

Question: B1 was tested. Which Kd did it give?
Answer: 38.4 ± 3.55 nM

Question: How did the Kd turn out when B2 was run?
Answer: 45 ± 10.5 nM

Question: How did the Kd turn out when B3 was run?
Answer: 21.8 ± 2.2 nM

Question: B4 was tested. Which Kd did it give?
Answer: 50 ± 19 nM

Question: For B5, which Kd is on record?
Answer: 19.8 ± 3.55 nM

Question: For B6, which Kd is on record?
Answer: 22 ± 2.05 nM

Question: B7 was tested. Which Kd did it give?
Answer: 8.8 ± 0.75 nM

Question: For B8, which Kd is on record?
Answer: 49 ± 6 nM

Question: B9 was tested. Which Kd did it give?
Answer: 51 ± 10.5 nM

Question: For B10, which Kd is on record?
Answer: 36 ± 9 nM

Question: For B11, which Kd is on record?
Answer: ~120 nM

Question: For B12, which Kd is on record?
Answer: 18.6 ± 3.7 nM

Question: With B13 as the binder, how does the Kd read?
Answer: 11 ± 1.4 nM

Question: With B14 as the binder, how does the Kd read?
Answer: 31.1 ± 2.2 nM

Question: For B15, which Kd is on record?
Answer: 100 ± 40 nM

Question: B16 was tested. Which Kd did it give?
Answer: 97.5 ± 30.5 nM

Question: Which Kd does the source give for B17 here?
Answer: 62 ± 18 nM

Question: How did the Kd turn out when B18 was run?
Answer: 49 ± 11.5 nM

Question: With B19 as the binder, how does the Kd read?
Answer: 98 ± 39.5 nM

Question: With B20 as the binder, how does the Kd read?
Answer: 55.5 ± 5.5 nM

Question: How did the Kd turn out when B21 was run?
Answer: 85.5 ± 20.5 nM

Question: With B22 as the binder, how does the Kd read?
Answer: 2.01 ± 0.17 nM

Question: How did the Kd turn out when B23 was run?
Answer: 32.5 ± 5.5 nM

Question: For B24, which Kd is on record?
Answer: 19.9 ± 1.35 nM
